Here are results for 16 sequences from the nanobody polyreactivity screen of Harvey et al. (2022).

The nature of this data set: yeast display, Sf9 membrane polyspecificity reagent, FACS + sequencing; frameworks hold sequencing errors. The procedure, abridged:
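Synthetic nanobody libraries on Saccharomyces cerevisiae BJ5465 were galactose-induced for 36–48 hours, stained 1 hour at 4 °C with 10% biotinylated, detergent-solubilized Sf9 membrane reagent and enriched on streptavidin microbeads. FACS then separated cells into low and high (top ~1%) gates by anti-HA (expression) and streptavidin (reagent binding) fluorescence. Genes were colony-PCR amplified, MiSeq 2 × 250 sequenced and CDR-length filtered. A clone's polyreactivity label is that of its gate of origin.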
On to “QVQLVESGGGLVQAGGSLRLSCAASGRTFHRYAMGWYRQAPVKEREVLAAITSSGGSTNYADSVKVRFTISRDNAKNTVYVQMNSLQPEDTAVYYCATDRYRYTSHPWSRGFDYWGQGTQVTVSS”, for which the “polyreactivity (PSR sort gate)” value is “low polyreactivity”.

For the sequence “QVQLVESGGGLVQAGGSLRLSCAASGRTFHSYAMGWYRQAPGKERELVAAIRGRGGTTYYADSVKGRFTFSRDNAKNTVYLQMNSLKPEDTAVYYCNAVVRRYFTAAATYDYWGQGTQVTVSS”, the “polyreactivity (PSR sort gate)” value is reported as “high polyreactivity”.

For “QVQLVESGGGLVQAGGSLRLSCAASGRTFHVYAMGWYRQAPGKEREFVAFISRRGGSTYYADSVKGRFTISRDNAKNTVYLQMNSLKPEDTAVYYCKARYVTSRSAYQRGGDYWGQGTQVTVSS”, the “polyreactivity (PSR sort gate)” value was “high polyreactivity”.

Turning to “QVQLVESGGGLVQAGGSLRLSCAASGRTFHWYAMGGYRQAPGKERELVAAIRYSAGSTYYADSVKGRFTISRDNAKNTVYLQMNSLKPEDTAVYYCAAEPYPYGPYYLLWLRYDYWGQGTQVTVSS”, the “polyreactivity (PSR sort gate)” value was “low polyreactivity”.

As for “QVQLVESGGGLVQAGGSLRLSCAASGRTFIANAMGWYRKAPRKERELLAVITLNGGSTYYADSVKGRFTISRDNAKKTVYLQMNSLKPEDTAVYYCNARYYPLYSKSYDSWGQGTQVPVSS”, the “polyreactivity (PSR sort gate)” value is “low polyreactivity”.

For “QVQLVESGGGLVQAGGSLRLSCAASGRTFIFYAMGWYRQAPGKERELVAAITYSGTSTYYADSVKGRFTISRDNAKNTVYLQMNSLKPEDTAVYYCAKDGQRDANYYWGQGTQVTVSS”, the “polyreactivity (PSR sort gate)” value is given as “low polyreactivity”.

Consider “QVQLVESGGGLVQAGGSLRLSCAASGRTFIGYAMGWYRQAPGKERELVAAISSSGGRTYYADSVKGRFTISRDNAKNTVYLQMNSLKPEDTAVYYCATGSWARDYYYWGQGTQVTVSS”, for which the “polyreactivity (PSR sort gate)” value is given as “high polyreactivity”.

As for “QVQLVESGGGLVQAGGSLRLSCAASGRTFIHYAMVWYRQAPGKERELVAAISRRGGSTYYADSVKGRFTISRDNAKNTVYLQMNSLKPEDTAVYYCAKATTTREPKYGYWGQGTQVTVSS”, the “polyreactivity (PSR sort gate)” value is reported as “high polyreactivity”.

“QVQLVESGGGLVQAGGSLRLSCAASGRTFIKYAMGWYRPAPGKERELVAAITHRGTNTYYADSVKGRFTISRDNAKYTVYLQMNSLKPEDTAVYYCAAAAPSYPSYDYWGQGTQVTVSS”: the “polyreactivity (PSR sort gate)” value was “low polyreactivity”.

With “QVQLVESGGGLVQAGGSLRLSCAASGRTFIWYAMGWYRQAPGKEREFVAAIRSSGGRTYYADSVKGRFTISRDNAKNTVYLQMNSLKPEDTAVYYCAKEAYYGWYWYGYWGQGTQVTVSS”, the “polyreactivity (PSR sort gate)” value is recorded as “high polyreactivity”.

With “QVQLVESGGGLVQAGGSLRLSCAASGRTFIWYVMGWYRQAPGKERELVASISTNGGNTYYADSVKGRFTISRDNAKNTVYLQMNSLKPEDTAVFYCAVDGVDAYYIAYYYWGQGTQVTVSS”, the “polyreactivity (PSR sort gate)” value is given as “high polyreactivity”.

As for “QVQLVESGGGLVQAGGSLRLSCAASGRTFIYYAMGWYRQAPGKERELVAGISRNGGRTYYADSVKGRFTISRDNAKNTVYLQMNSLKPEDTAVYYCNAYPPSRHDYWGQGTQVTVSS”, the “polyreactivity (PSR sort gate)” value is listed as “high polyreactivity”.

With “QVQLVESGGGLVQAGGSLRLSCAASGRTFKAYAMGWYRQAPGKEREFVAAITKRGGSTYYADSVKGRFTISRDNAKNTVYLQMNSLKPEDTAVYYCAVGLGRYTHTSVPIPSYDYWGQGTQVTVSS”, the “polyreactivity (PSR sort gate)” value is given as “high polyreactivity”.

Take “QVQLVESGGGLVQAGGSLRLSCAASGRTFKCYAMGWYRQAPGKETELVAAISYRGGSTYYADSVKGRFTISRDNAKNTVYLQIKRLKPEDTAVYYCAARWNRGRYDYWGQGTQVTESS”: the “polyreactivity (PSR sort gate)” value was “high polyreactivity”.

For the sequence “QVQLVESGGGLVQAGGSLRLSCAASGRTFKENAMGWYRQAPGKERELVAVINSGGRTYYADSVKGRFTISRDNAKNTVYLQMNSLKPEDTAVYYCAAYSRSKESGYWGQGTQVTVSS”, the “polyreactivity (PSR sort gate)” value is on record as “high polyreactivity”.

As to “QVQLVESGGGLVQAGGSLRLSCAASGRTFKFYAMGWYRQAPGKERELVATITSGGSTYYADSVKGRFTISRDNAKNTVYLQMNSLKPEDTAVYYCNKRYRKPGSGWYDSWGQGTQVTVSS”, the “polyreactivity (PSR sort gate)” value is given as “high polyreactivity”.
